Paper PMC13181761, “New Analogs of the Compstatin Family of Clinical Complement Inhibitors with Low Picomolar Target Affinity” (Journal of Medicinal Chemistry, 2026)
Each block holds one binder with its values, some of them ahead of it. Bridges are numbered along the chain shown (N, C = ends). Where no end group is shown, it is not given here. [ ]: non-standard residue; d: D form. Trp(1-Me) = Cn1cc(C[C@H](N)C(=O)O)c2ccccc21; Nva(3-Et) = CCC(CC)[C@H](N)C(=O)O; Asu = N[C@@H](CCCCCC(=O)O)C(=O)O; NMeI = CC[C@H](C)[C@H](NC)C(=O)O; Sar = CNCC(=O)O

What was measured:
human C3b [1] = target: T1, human C3b (human, UniProt P01024 749-1663); assay: SPR; Biacore T200; human C3b amine-coupled; multicycle kinetics, serial 2-fold dilutions of peptide, 120 s injection, 180 s dissociation, regeneration 1 M NaCl; 25 °C, HBST pH 7.4; Langmuir 1:1 fit, KD = kd/ka; mean of 3 experiments; details: both partners purified
T1 construct: Complement C3 beta chain, human; cut product of the C3 precursor; C3b alpha chain (C3 alpha chain after release of C3a), human; Two-chain fragment of C3; amine-coupled to the chip in SPR, free in the cryo-EM sample; also called hC3b; plasma-purified C3b; source: bought: Complement Technology (plasma-purified)

human C3b [2] = target: T1, human C3b; assay: SPR; Biacore T200; human C3b amine-coupled; single-cycle kinetics, 5 increasing concentrations (0.5-40 nM), final dissociation 100-240 min; 25 °C, HBST pH 7.4; global Langmuir 1:1 fit; mean of 3 experiments; details: both partners purified

B1: Cp01 W7Bta analog (peptide)
chain: ICVWQDXGAHRCT
modifications: (3-benzothienyl)alanine (Bta) at position 7; acetyl at position 0; cyclic (cyclized by H2O2)
- Kd (human C3b [1]): > 16 µM

B2: Cp01 Asp6Asu analog (peptide)
chain: Ac-ICVWQ[Asu]WGAHRCT
modifications: disulfide 2-12 (inferred)
- Kd (human C3b [1]): 2.08 µM
- koff (human C3b [1]): 0.23 s⁻¹
- kon (human C3b [1]): 120000 M⁻¹ s⁻¹

B4: Cp01 Gly8D-Ala analog (peptide)
chain: Ac-ICVWQDW[dA]AHRCT
modifications: disulfide 2-12 (inferred)
- Kd (human C3b [1]): > 16 µM

B5: Cp40 Dea3 analog (peptide)
chain: [dY]IC[Nva(3-Et)][Trp(1-Me)]QDW[Sar]AHRC[NMeI]
modifications: disulfide 3-13 (inferred)
- Kd (human C3b [2]): 0.0136 µM
- koff (human C3b [2]): 0.006 s⁻¹
- kon (human C3b [2]): 430000 M⁻¹ s⁻¹

Second part, the binder after the results:

- Kd (human C3b [1]): 0.103 µM
B3: Cp01 Val3Tbg analog (peptide)
chain: ICXWQDWGAHRCT
modifications: α-tert-butyl-glycine (Tbg) at position 3; acetyl at position 0; cyclic (cyclized by H2O2)

- Kd (human C3b [1]): 1.66 µM
B6: Cp01 Val3Nva analog (peptide)
chain: ICXWQDWGAHRCT
modifications: not fully specified; norvaline (Nva) at position 3; acetyl at position 0; cyclic (cyclized by H2O2)
